Assay results as given in the DeepSol protein solubility set.

Assay: soluble on expression in E. coli; label from the status in PepcDB or PDB records

Sequence | soluble on expression in E. coli
MWQAISQQLSDTLLFEYQITEKVRLSGGDISESYMINDGEQRYFVKINDREFLHKFEVEAESLHLLRETSTIFVPEVVLVGKTKNNAFIILNYLPTKPLDDPENSFKFGQQLAQLHQWGEQKEFGFDTDNYLGSTLQPNQWHKKWCMFFAEQRIGWQLQLLKEKGVTLVDIDDFIDVVKQLLANHTPEPSLLHGDLWNGNVALTAFGPICFDPACYWGDRECDIAMTELFGGFQPEFYQGYESVMPLLPGYHERKDIYNLYHILNHCNLFGGHYLEQAQLTINKIISYLEHHHHHH | soluble
MWRTEMRKFLVVLDDSRECLNAMRFAAMRAAHTGGGVAILSIIPPDEFNHWIGVGEVMREEARERIHAHFEVFAKWMRDKQGVEPELVIREGEAVPEIIAHVQEDPEIGVLVLGAGTDKKGPGPLVSQLSRSSGSLPIPITIVPGDLSKEKLEAIT | not soluble
MWYQKTLTLSAKSRGFHLVTDEILNQLADMPRVNIGLLHLLLQHTSASLTLNENCDPTVRHDMECFFLRTVPDNGNYEHDYEGADDMPSHIKSSMLGTSLVLPVHKGRIQTGTWQGIWLGEHRIHGGSRRIIATLQGELEHHHHHH | not soluble
MYAAKGTQAYAQIGVESAVMSASQQQLVTMLFDGVLSALVRASLFMQDNNQQGKGVSLSKAINIIENGLRVSLDEESKDELTQNLIALYSYMVRRLLQANLRNDVSAVEEVEALMRNIADAWKESLLSPSLIQDPV | soluble
MYDFAIIGSGVAGATLAKELRYRYKVAVIEKGKKPSYASEGKNVEINYVYGLGGSGVYSLGNAIKTEIKGYKIDKDIYKEIWEELKIKAPKDDFLNDIDKAFIELGFEKMEKFIDFDRCNKCGECARKICKAKWTPLNYLKESNANIITEFNIKAINYSNYYEILDDKGRKIKAKNLIISAGGINSPRILKKMIDDENIGKNLFIDTFVTVGGILEDSYLNKDISMLVYKKYKNFMLATHYSKLLINEIKKDYKDVKEKDIVGIMIKIKDENNGVVLDNDVKKEITKEDFKTLARGICKATKYLYKLGVDDIYTTIPRGSHPGGSLSLVVDEFEVREGLYVCDASLFKEALGVPPIVSIIALSKKFVREILLEHHHHHH | not soluble
MYEITATIVTYKNPDSVLLKAINSFLNTKLEVRLYIIDNSPTDYLKDISYDPRVEYIFMNSNNGFGAGHNVILRDPEKMGKYHLILNPDISFEEGTLEKLYDYMEGKLDVGNVMPKVIYPNGELQYLCKLLPTPKDWIVRMFLPIKSIKNRIDYNFEMKFADYDREMNIPYLSGCFMFLRKSVIEGIGVFDEGIFMYGEDTDLNRRIYRKYKTMYYPQVTITHHFEKGSHKSLRLLWIHVKAAIYYLNKWGWFFDKERSIINITVKQQYIRKLEHHHHHH | soluble
MYEKTKWKIQKMMKKGVFSGASFCFIEGEKEESNCWGLAQVKPTKEQLTSAMLFDVASLTKVVGTTTVILQLVEEGKIILDQSLQTYYPSFQDSNITIRHLLTHTADLQGYIPNRDQLNAQELKDAYNHSFHAGKAIGKKVVYTDAGTILLGFMLEEMFQQSMIEILSERVLLPLGMNESTFLPKNPLNCVPTELHEQRGLIRGATHDPKAFVLREHAGNAGLFSNVYDLTKFVRMYLNRGSYHNHQFLKKETIDLLLVNQVPAADKPRSLGWDFKYDVATQRPLLFHTGYTGTFLLIDVQQQSALIFLSNRVHPEDHRNTYIEERDQLLATYLKEKSSVSDEMTSF | not soluble
MYHDRRRTGFRQYETYMKQKQSADWQLDELLEELEALETQLNSSNGGDQLLLGVSGIPASSSRENVKSISTLPPPPPALSYHQTPQQPQLLHHHNNHLGYQNGIHQITSINSAASSCSSPDGDSAFGDSSSTESSNNRCRNSAFSSNDSCRDSLNTPSPTQVSPRNGELNAEEAKAQKIRQALEKMKEAKVTKIFVKFFVEDGEALQLLIDERWTVADTLKQLAEKNHIALMEDHCIVEEYPELYIKRVYEDHEKVVENIQMWVQDSPNKLYFMRRPDKYAFISRPELYLLTPKTSDHMEIPSGDQWTIDVKQKFVSEYFHREPVVPPEMEGFLYLKSDGRKSWKKHYFVLRPSGLYYAPKSKKPTTKDLTCLMNLHSNQVYTGIGWEKKYKSPTPWCISIKLTALQMKRSQFIKYICAEDEMTFKKWLVALRIAKNGAELLENYERACQIRRETLGPASSMSAASSSTAISEVPHSLSHHQRTPSVASSIQLSSHMMNNPTHPLSVNVRNQSPASFSVNSCQQSHPSRTSAKLEIQYDEQPTGTIKRAPLDVLRRVSRASTSSPTIPQEESDSDEEFPAPPPVASVMRMPPPVTPPKPCTPLTSKKAPPPPPKRSDTTKLQSASPMAPAKNDLEAALARRREKMATMECMGHHHHHHENLYFMGHHHHHHENLYFQSH | soluble
MYIELRTSLEMFRSDLVDLEALANASRDALDQLPFVPKGPKMDDDEAHPNPDPESALRSGRLDSLVCATASAAQSALVTCVKLIDWAYEYEPDDEDDDDNDIVPMDDIDDDDEGGGSSGANGGGSNGSGRSGPPDNGDASAAPSVTADELANARPSRGGIALDLPPKPAPVA | not soluble
MYIGIDLGTSGVKVILLNEQGEVVAAQTEKLTVSRPHPLWSEQDPEQWWQATDRAMKALGDQHSLQDVKALGIAGQMHGATLLDAQQRVLRPAILWNDGRCAQECTLLEARVPQSRVITGNLMMPGFTAPKLLWVQRHEPEIFRQIDKVLLPKDYLRLRMTGEFASDMSDAAGTMWLDVAKRDWSDVMLQACDLSRDQMPALYEGSEITGALLPEVAKAWGMATVPVVAGGGDNAAGAVGVGMVDANQAMLSLGTSGVYFAVSEGFLSKPESAVHSFCHALPQRWHLMSVMLSAASCLDWAAKLTGLSNVPALIAAAQQADESAEPVWFLPYLSGERTPHNNPQAKGVFFGLTHQHGPNELARAVLEGVGYALADGMDVVHACGIKPQSVTLIGGGARSEYWRQMLADISGQQLDYRTGGDVGPALGAARLAQIAANPEKSLIELLPQLPLEQSHLPDAQRYAAYQPRRETFRRLYQQLLPLMA | soluble
MYIPPYKADDQDIVVELNSRFGAETFTVQPTRTGMPVLWVPRERLIEVLTFLRQVPKPYVMLYDLHGVDERLRTHRRGLPSADFSVFYHLMSLERNSDVMIKVALSERDLNLPTATRIWPNANWYEREVWDMYGITFTGHPHLTRMLMPPTWQGHPLRKDYPARATEFDPYSLSAAKQDLEQEALRFKPEDWGMKRHGENEDYMFLNLGPNHPSAHGAFRIILQLDGEEIIDCVPEIGYHHRGAEKMAERQSWHSFIPYTDRIDYLGGVMNNLPYVLSVEKLAGIKVPQRVDVIRIMMAEFFRILNHLLYLGTYIQDVGAMTPVFFTFTDRQRAYKVVEAITGFRLHPAWYRIGGVAHDLPRGWDKLVREFLDWMPKRLDEYETAALKNSILRGRTIGVAQYNTKEALEWGTTGAGLRATGCDFDLRKARPYSGYENFEFEVPLAHNGDAYDRCMVKMGEMRQSLRIIEQCLKNMPEGPYKADHPLTTPPPKERTLQHIETLITHFLQVSWGPVMPANEAFQMIEATKGINSYYLTSDGSTMSYRTRIRTPSFAHLQQIPSVINGSM | not soluble
MYKLIDSAKFIMCVRSKRFRPDTLMDIFYLLNIQNMNCKKLFKTLLFIITTLVIVSCSKDDCDLDHIDKLQGLPALKAGTFPEEDLTLNVGEQYVYAPKASSPLDIYYQWYQNGEDMSTAPSFTFNAEHPGRSKVILELSNDLGKVTLENKVMVPGADYSKGCLIINEGWFGHGSGSISFYNYEKNSIEHWCYKNQNFGDVLGVTSQSATLWNGKLYVCSKEDNQLVVMDPKTLYAENSCGKLANYQAYEFIGLNDDYGIITHGGYFSRINLKTFETITLVSVGNTYTGTGSGIAYNGKLILNVNSSGWGSPKVYTIDIAELCSPDLKPTDKVAFQELDIATYGGTRFVQCKDGNIYTVETTKDGKNNLVRINADFSLKKVAMRDDYSPSSFGAYREASFCGTPEGIFYYIAGGKIYKATFDNPAPEETLTEYTKEGYGFYGAGIRVNPKTNELLAMYLTGDYQKNLLVRFNAATGEKISEIAYDGYYFPATFIFN | not soluble
MYLTLQEWNARQRRPRSLETVRRWVRESRIFPPPVKDGREYLFHESAVKVDLNRPVTGSLLKRIRNGKKAKS | soluble
MYNSATVIYQNLLKSTPKKASEYYYYLGDICWRKEKTDSAKYYFMEGIKTDETYAMNYVGIGIITMKSNATEGQRSFDKALQMTSQKNSQVLNAIGEYYILEADKAELPKGIALLKKSTEIDAKNAMSWILLGDAYGKQAEGSKQAESYGKAANLFHSVPLLKMKYGKMYAAARNKDLSIKYYNEGLAADPTYGPIYRELGDLYNRFRQYDLAIQNYKKYLTYIDSNDDVEFRYADFLFKNNNYAEAIEVFNKLEAKKYNSPYIYNRRAVCYYELAKYDLAQKDIETYFSKVNATKAKLEHHHHHH | not soluble
MYNVIGVRFKKAGKIYYFDPNGFHIEHDSCVIVETVRGVEYGQVVIANKQVDEHDVVLPLRKVIRVADDRDLLIVEENKQEALSAFDICQKKVIEHGLDMKLVDVEFTFDRNKVIFYFTADGRVDFRELVKDLASIFKTRIELRQIGVRDEAKMLGGIGPCGRMLCCSTFLGDFEPVSIKMAKDQNLSLNPTKISGLCGRLMCCLKYENDEYETAKEQLPDIGEMITTANGPAKVVGLNILERVLQVELINREKVIEYTWEELLEEGVVSAQTTDLEHHHHHH | not soluble
MYRKGAQAERELIKLLEKHGFAVVRSAGSKKVDLVAGNGKKYLCIEVKVTKKDHLYVGKRDMGRLIEFSRRFGGIPVLAVKFLNVGWRFIEVSPKIEKFVFTPSSGVSLEVLLGIQKTLEGKS | soluble
MYSPQTFFLQEVKGQKPDGLGGLIDDWGLFKEVSGYIDLVTGTDETTKQNAFVEESTHILIIPEFIEGITDNMRVVDQTNRYYDITYSDNPVGIKHHNEIYLKFEGVLSGEE | not soluble
MYTLREPYKGYEVKVTLLPIEDIVIPPIQRDLSETLIKKLMLSIEKVGFVDPILVVEGEEGKYEVINGQHRLKAAELLGIREIPAIILPQETKDYIISLNVEKAPNLKDKAHQAYEIFMKYLKENPEMEEVELENMVEEPYFLTVGFITDRFGEKRFPAYAFEKVLKKVDEFLGLPLEEAERERENRANVLRDVREVMEEKYQELGLTNALHKEAIISKAFQSVYGKRVRKVDDDFYTVFEKIKEAIPRVSFTEEELESF | soluble
MYYGFDIGGTKIALGVFDSTRRLQWEKRVPTPHTSYSAFLDAVCELVEEADQRFGVKGSVGIGIPGMPETEDGTLYAANVPAASGKPLRADLSARLDRDVRLDNDANCFALSEAWDDEFTQYPLVMGLILGTGVGGGLVLNGKPITGQSYITGEFGHMRLPVDALTLMGFDFPLRRCGCGQMGCIENYLSGRGFAWLYQHYYDQSLQAPEIIALWEQGDEQAHAHVERYLDLLAVCLGNILTIVDPDLLVIGGGLSNFTAITTQLAERLPRHLLPVARAPRIERARHGDAGGMRGAAFLHLTD | soluble
NALPAGNYLVASPQRYNPPGVLDSQTELPRLLAQARREVRVQLLDYAPLSYGPDKTRPYYAVIDNAIRSAAARGVSIKLMVSDWNTGMPEVAYLKSLALVPNVQVRIVTLPVAAEGFIPYARVIHSKTMDIDDQVAWVGTSNWLGGYLDNSRNLEVVMHDSTMAKRIGVLHEQLWDGPYAKPIDINRDYPEPH | not soluble
NDDIIVNWVNETLREAEKSSSISSFKDPKISTSLPVLDLIDAIQPGSINYDLLKTENLNDDEKLNNAKYAISMARKIGARVYALPEDLVEVNPKMVMTVFACLMGKGMKRV | soluble
NGEHTTDIEEQYLEAIRGATQRITLANAYFFPSYRFLRELRNASRRGVKVTLILQGQPDMPFVRVCSRLTYTYLLRDGVVIHEYKQRALHGKVALIDQEWSTVGSSNLDPLSLALNLEANLFIRDKALNQHLQGHLMELAAAHSTQMSLKGAAR | not soluble
